From patent JP2007300927A (dated 2007)

Key:
GC-1 [1] = target: T1, GC-1 (human, UniProt P51654 495-563); test: Western blot of GST fusion proteins, reducing SDS-PAGE
T1 construct: Made in E. coli DH5α, purified on glutathione resin; also called GST融合タンパク質GC-1(Ser495からLys563); not shown: GST (glutathione S-transferase) of vector pGEX-4T-3 (Amersham), N-terminal to the GPC3 piece
T1 sequence: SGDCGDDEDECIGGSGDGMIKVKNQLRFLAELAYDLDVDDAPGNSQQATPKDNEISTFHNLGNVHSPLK

GC-3 [2] = target: T2, GC-3 (human, UniProt P51654 524-563); test: as above
T2 construct: also called GST融合タンパク質GC-3(Ala524からLys563); not shown: GST (glutathione S-transferase) of vector pGEX-4T-3 (Amersham), N-terminal to the GPC3 piece
T2 chain: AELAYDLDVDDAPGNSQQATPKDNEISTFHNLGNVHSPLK

GC-2 [3] = target: T3, GC-2 (human, UniProt P51654 510-563); test: as above
T3 construct: also called GST融合タンパク質GC-2(Gly510からLys563); not shown: GST (glutathione S-transferase) of vector pGEX-4T-3 (Amersham), N-terminal to the GPC3 piece
T3 sequence: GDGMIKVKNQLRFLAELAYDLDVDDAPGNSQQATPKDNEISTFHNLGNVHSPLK

可溶型GPC3コアタンパク質 [4] = target: T4, 可溶型GPC3コアタンパク質 (human, UniProt P51654 25-563); test: ELISA, purified antibody from 10 μg/mL in 3-fold steps on immobilised soluble GPC3 core protein
T4 construct: also called 可溶型GPC3コア蛋白質; soluble GPC3 core protein; not shown: C-terminal His tag

可溶型GPC3コアタンパク質 [5] = target: T4, 可溶型GPC3コアタンパク質; test: ELISA screening on immobilised soluble GPC3 core protein
GC-1 [6] = target: T1, GC-1; test: Western blot of GST fusion proteins
GC-3 [7] = target: T2, GC-3; test: Western blot of GST fusion proteins
GC-2 [8] = target: T3, GC-2; test: Western blot of GST fusion proteins
可溶型GPC3コアタンパク質 [9] = target: T4, 可溶型GPC3コアタンパク質; test: ELISA on GPC3 (Fig. 15)
可溶型GPC3コアタンパク質 [10] = target: T4, 可溶型GPC3コアタンパク質; test: ELISA on GPC3 (Fig. 15); reference antibody of the comparison
可溶型GPC3コアタンパク質 [11] = target: T4, 可溶型GPC3コアタンパク質; test: ELISA screening of hybridoma supernatant on immobilised soluble GPC3 core protein

B1: M11F1 (antibody, V domains shown)
VH: QVTLKESGPGILQPSQTLSLTCSFSGFSLSIYGMGVGWIRQPSGKGLEWLANIWWNDDKYYNSALKSRLTISKDTSNNQVFLKISSVDTADTATYYCAQIGYFYFDYWGQGTTLTVSS
VL: DVVMTQTPLSLPVSLGDQASISCRSSQSLVHSNGNTYLHWYLQKPGQSPKLLIYKVSNRFSGVPDRFSGSGSGTDFTLKISRVEAEDLGVYFCSQSTHVPWTFGGGTKLEIK
notes: Mouse hybridoma antibody
Question: Does B1 bind (GC-1 [1])?
Answer: Result: binds

Question: Does B1 bind (GC-3 [2])?
Answer: Result: binds

Question: Does B1 bind (GC-2 [3])?
Answer: Result: binds

Question: Does B1 bind (可溶型GPC3コアタンパク質 [4])?
Answer: Result: binds

B2: M13B3 (antibody, V domains shown)
VH: EVHLVESGGGLVKPGGSLKLSCAASGFTFSNYAMSWVRQTPEKRLEWVAAINNNGDDTYYLDTVKDRFTISRDNAKNTLYLQMSSLRSEDTALYYCVRQGGAYWGQGTLVTVSA
VL: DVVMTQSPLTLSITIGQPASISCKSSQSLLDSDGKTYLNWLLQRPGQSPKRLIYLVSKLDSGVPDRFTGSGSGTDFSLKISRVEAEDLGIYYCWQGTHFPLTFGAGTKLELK
notes: Mouse hybridoma antibody
Question: Does B2 bind (可溶型GPC3コアタンパク質 [4])?
Answer: Result: binds

B3: GC199 (antibody, V domains shown)
VH: QIQLEQSGPELKKPGETVKISCKASGYIFRDYSMHWVKQAPGKGLKWMGWINTETGEPTYADDFKGRFAFSLETSASTAYLQINNLKNEDTATYFCTSLYWGQGTLVTVSA
VL: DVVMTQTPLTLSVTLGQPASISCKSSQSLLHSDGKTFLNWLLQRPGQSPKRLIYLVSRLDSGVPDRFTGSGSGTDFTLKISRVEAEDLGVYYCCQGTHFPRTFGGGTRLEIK
notes: Mouse hybridoma antibody from GC-3 immunisation; also called GC199抗体
Question: Does B3 bind (可溶型GPC3コアタンパク質 [5])?
Answer: Result: binds

Question: Does B3 bind (GC-1 [6])?
Answer: Result: binds

Question: Does B3 bind (GC-3 [7])?
Answer: Result: binds

Question: Does B3 bind (GC-2 [8])?
Answer: Result: binds

B4: ヒト化GC33 H鎖ver.j / L鎖ver.a (antibody, human IgG1, V domains shown)
VH: QVQLVQSGAEVKKPGASVKVSCKASGYTFTDYEMHWVRQAPGQGLEWMGALDPKTGDTAYSQKFKGRVTLTADKSTSTAYMELSSLRSEDTAVYYCTRFYSYTYWGQGTLVTVSS
VL: DVVMTQSPLSLPVTPGEPASISCRSSQSLVHSNGNTYLHWYLQKPGQSPQLLIYKVSNRFSGVPDRFSGSGSGTDFTLKISRVEAEDVGVYYCSQNTHVPPTFGQGTKLEIK
notes: Human IgG1 / κ constant regions; also called GC33 VH ver.j
Question: Does B4 bind (可溶型GPC3コアタンパク質 [9])?
Answer: Result: binds

B5: GC33 ver.a / mouse (antibody, human IgG1, V domains shown)
VH: QVQLVESGAEVKKPGASVKVSCKASGYTFTDYEMHWVRQAPGQGLEWMGALDPKTGDTAYSQKFKGRVTITADESTSTAYMELSSLRSEDTAVYYCARFYSYTYWGQGTLVTVSS
VL: DVVMTQTPLSLPVSLGDQASISCRSSQSLVHSNGNTYLHWYLQKPGQSPKLLIYKVSNRFSGVPDRFSGSGSGTDFTLKISRVEAEDLGVYFCSQNTHVPPTFGSGTKLEIK
notes: Humanised H chain variable region ver.a combined with the mouse GC33 L chain variable region; human IgG1 / κ constant regions; also called H鎖 ver.a / L鎖 マウスGC33
Question: Does B5 bind (可溶型GPC3コアタンパク質 [9])?
Answer: Result: binds

B6: GC33マウス−ヒトキメラ抗体 (antibody, V domains shown)
VH: QVQLQQSGAELVRPGASVKLSCKASGYTFTDYEMHWVKQTPVHGLKWIGALDPKTGDTAYSQKFKGKATLTADKSSSTAYMELRSLTSEDSAVYYCTRFYSYTYWGQGTLVTVSA
VL: DVVMTQTPLSLPVSLGDQASISCRSSQSLVHSNGNTYLHWYLQKPGQSPKLLIYKVSNRFSGVPDRFSGSGSGTDFTLKISRVEAEDLGVYFCSQNTHVPPTFGSGTKLEIK
notes: Mouse GC33 variable regions on human IgG1 and human κ constant regions (vectors HEFgγ1, HEFgκ); also called キメラGC33抗体; マウスGC33可変領域の抗体(mouse / mouse)
Question: Does B6 bind (可溶型GPC3コアタンパク質 [10])?
Answer: Result: binds

B7: GC33 (antibody, V domains shown)
VH: QVQLQQSGAELVRPGASVKLSCKASGYTFTDYEMHWVKQTPVHGLKWIGALDPKTGDTAYSQKFKGKATLTADKSSSTAYMELRSLTSEDSAVYYCTRFYSYTYWGQGTLVTVSA
VL: DVVMTQTPLSLPVSLGDQASISCRSSQSLVHSNGNTYLHWYLQKPGQSPKLLIYKVSNRFSGVPDRFSGSGSGTDFTLKISRVEAEDLGVYFCSQNTHVPPTFGSGTKLEIK
notes: also called GC33抗体
Question: Does B7 bind (可溶型GPC3コアタンパク質 [5])?
Answer: Result: binds

Question: Does B7 bind (GC-1 [6])?
Answer: Result: binds

Question: Does B7 bind (GC-3 [7])?
Answer: Result: binds

Question: Does B7 bind (GC-2 [8])?
Answer: Result: binds

B8: ヒト化GC33(ver.a / ver.a) (antibody, V domains shown)
VH: QVQLVESGAEVKKPGASVKVSCKASGYTFTDYEMHWVRQAPGQGLEWMGALDPKTGDTAYSQKFKGRVTITADESTSTAYMELSSLRSEDTAVYYCARFYSYTYWGQGTLVTVSS
VL: DVVMTQSPLSLPVTPGEPASISCRSSQSLVHSNGNTYLHWYLQKPGQSPQLLIYKVSNRFSGVPDRFSGSGSGTDFTLKISRVEAEDVGVYYCSQNTHVPPTFGQGTKLEIK
notes: Human IgG1 / human κ constant regions (HEFgγ1, HEFgκ); also called GC33 VH ver.a / GC33 VL ver.a
Question: Does B8 bind (可溶型GPC3コアタンパク質 [9])?
Answer: Result: binds

B9: M5B9 (antibody, V domains shown)
VH: EVQLQQSGTVLARPGASVKMSCKASGYTFTGYWMHWVKQRPGQGLEWIGAIYPGNSDTNYNQKFKGKAKLTAVTSASTAYMELSSLTNEDAAVYHCTRSGDLTGGLAYWGQGTLVTVSA
VL: DIVMTQAAFSNPVTLGTSASISCRSSKSLLHSNGITYLYWFLQKPGQSPQLLIYQMSNLASGVPDRFSSSGSGTDFTLRISRVEAEDVGVYYCAQNLELPYTFGSGTKLEIK
notes: Mouse hybridoma antibody
Question: Does B9 bind (可溶型GPC3コアタンパク質 [11])?
Answer: Result: binds

B10: GC179 (antibody, V domains shown)
VH: EVQLVETGGGLVQPEGSLKLSCAASGFSFNINAMNWVRQAPGKGLEWVARIRSESNNYATYYGDSVKDRFTISRDDSQNMLYLQMNNLKTEDTAIYYCVREVTTSFAYWGQGTLVTVSA
VL: DIVMTQSAPSVPVTPGESVSISCKSSKSLLHSNGNTYLNWFLQRPGQSPQLLIYWMSNLASGVPDRFSGSGSGTAFTLRISRVEAEDVGVYYCMQHIEYPFTFGTGTKLEIK
notes: Mouse hybridoma antibody from GC-3 immunisation
Question: Does B10 bind (可溶型GPC3コアタンパク質 [5])?
Answer: Result: binds

Question: Does B10 bind (GC-1 [6])?
Answer: Result: binds

Question: Does B10 bind (GC-3 [7])?
Answer: Result: binds

Question: Does B10 bind (GC-2 [8])?
Answer: Result: binds

B11: M10D2 (antibody, V domains shown)
VH: QVQLQQPGAELVKPGASVKLSCKASGYTFTSYWMHWVKQRPGQGLEWIGEIDPSDSYTYYNQKFRGKATLTVDKSSNTAYMQLSSLTSEDSAVYYCSRSNLGDGHYRFPAFPYWGQGTLVTVSA
VL: DIVLTQSPATLSVTPGDRVSLSCRASHSISNFLHWYPQKSHESPRLLIKYASQSISGIPSRFSGNGSGTDFTLSINSVETEDFGMYFCQQSNIWSLTFGAGTKLELK
notes: Mouse hybridoma antibody
Question: Does B11 bind (可溶型GPC3コアタンパク質 [11])?
Answer: Result: binds

B12: M6B1 (antibody, V domains shown)
VH: EVQLVESGGDLVKPGGSLKLSCAASGFTFSSYAMSWVRQTPEKRLEWVAAINSNGGTTYYPDTMKDRFTISRDNAKNTLYLQMSSLRSEDSALYYCTRHNGGYENYGWFAYWGQGTLVTVSA
VL: DIQMTQSPSSLSASLGGKVTITCKASQDINKNIIWYQHKPGKGPRLLIWYTSTLQPGIPSRFSGSGSGRDYSFSISNLEPEDIATYYCLQYDNLPRTFGGGTKLEIK
notes: Mouse hybridoma antibody
Question: Does B12 bind (可溶型GPC3コアタンパク質 [4])?
Answer: Result: binds

B13: L9G11 (antibody, V domains shown)
VH: QVQLQQPGAELVKPGASVKLSCKASGYTFTSYWMHWVKQRPGQGLEWIGTIDPSDSETHYNLQFKDTATLTVDKSSSTAYMQLSSLTSEDSAVYYCIRGAFYSSYSYWAWFAYWGQGTLVTVSA
VL: DIVLTQSPTSLAVSLGQSVTISCRASESVEYYGTSLMQWYQQKPGQPPKLLIYGASNVESGVPARFSGSGSGTDFSLNIHPVEEDDIAMYFCQQSRKVPYTFGSGTKLEIK
notes: Mouse hybridoma antibody
Question: Does B13 bind (可溶型GPC3コアタンパク質 [4])?
Answer: Result: binds
